Assay [1] has as its target SARS-CoV-2 spike ectodomain, prefusion-stabilised trimer (刺突 S2P) (SARS-CoV-2).
The target is the same in assay [2]. In words: SPR, captured spike S2P. On the technique in general: In SPR one partner is held on a chip, and binding of the other changes the refractive index at the surface.
Assay [3] has the same target. In words: binding kinetics (SPR), Fig. 6A.
For assay [4] the target is unchanged. The source holds these as a separate data set.
Assay [5] shares this target. In words: SPR, captured spike S2P, biphasic dissociation, fast phase kd1.
Assay [6] has the same target. Kind of assay: SPR, captured spike S2P, biphasic dissociation, slow phase kd2.

B1: Nb6 (VHH)
VHH: QVQLVESGGGLVQAGGSLRLSCAASGIIFGRNAMGWYRQAPGKERELVAGITRRGSITYYADSVKGRFTISRDNAKNTVYLQMNSLKPEDTAVYYCAADPASPAPGDYWGQGTQVTVSS
Turning to B1, the half-inhibitory concentration (IC50) in assay [1] is 370 nM. Besides, the Kd in assay [2] and in assay [3] was 210 nM throughout. The koff in assay [2] came to 0.056 s⁻¹. In addition, the concentration giving a half-maximal response (EC50) in assay [4] was determined as 359 nM.

B2: Nb6-bi (bivalent Nb6 with a 15 amino acid linker) (VHH)
chain: QVQLVESGGGLVQAGGSLRLSCAASGIIFGRNAMGWYRQAPGKERELVAGITRRGSITYYADSVKGRFTISRDNAKNTVYLQMNSLKPEDTAVYYCAADPASPAPGDYWGQGTQVTVSSGGGGSGGGGSGGGGSQVQLVESGGGLVQAGGSLRLSCAASGIIFGRNAMGWYRQAPGKERELVAGITRRGSITYYADSVKGRFTISRDNAKNTVYLQMNSLKPEDTAVYYCAADPASPAPGDYWGQGTQVTVSS
As to B2, the off-rate (koff) in assay [5] stood at 0.027 s⁻¹; in assay [6], 0.00031 s⁻¹. Moreover, the fold gain in KD against monovalent Nb6 in assay [2] stood at 750 fold.

Broadly, the IC50 is the point on the concentration scale where inhibition reaches its midpoint. The Kd is the constant that tells how readily two partners part at equilibrium. A word on the koff: it is the rate constant with which the complex falls apart. The EC50 is the midpoint of the concentration-response curve.

Values taken from patent CN116472284A.
